Experimental findings from article PMC4470041 are described below.

This assay concerns the target CCR5 expressed in HEK 293T cells (HEK-CCR5 cells) (UniProt P51681). Kind of assay: radioligand binding.
Chain of UniProt P51681 (P51681 whole entry): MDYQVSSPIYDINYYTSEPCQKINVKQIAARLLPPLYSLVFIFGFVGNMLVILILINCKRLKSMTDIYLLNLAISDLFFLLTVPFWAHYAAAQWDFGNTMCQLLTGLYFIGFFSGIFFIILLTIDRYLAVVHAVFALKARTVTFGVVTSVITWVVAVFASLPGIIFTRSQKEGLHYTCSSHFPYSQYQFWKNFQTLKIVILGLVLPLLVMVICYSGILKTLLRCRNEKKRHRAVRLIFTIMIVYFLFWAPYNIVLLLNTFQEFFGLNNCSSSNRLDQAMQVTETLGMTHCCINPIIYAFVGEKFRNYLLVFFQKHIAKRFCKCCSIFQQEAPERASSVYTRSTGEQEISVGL

“gp120 from the R5 HIV-1 primary strain Bx08 (natural protein)” showed a Ki of 6.3 nM.

Usually Ki stands for the equilibrium dissociation constant of an inhibitor or competing ligand from its target. Low values mean a stronger hold on the target, high ones a looser hold on the target.
